Experimental data: PMC10657410

Biological target: GST-ApCaV2a1 C-terminal fragment 1 with the putative RxLPxxP site removed (Aplysia californica)
Assay: pull-down; GST protein on glutathione beads rotated with His-tag protein eluate overnight at 4 °C; washed 4 x 10 min with PBS; eluted by boiling; SDS-PAGE, Ponceau stain and blot with anti-His antibody

percent of binding remaining: 26%
Substance: His-SH3-3 domain of Aplysia RIM-binding protein (ApRBP) (domain or fragment)
